Test results reported in paper PMC4115230, “Lipid–Protein Nanodiscs Offer New Perspectives for Structural and Functional Studies of Water-Soluble Membrane-Active Peptides” (Acta Naturae, 2014).

Legend:
[1] = target: T1, Membrane scaffold protein (MSP): recombinant 44-243 fragment of human apolipoprotein A1 with an N-terminal … (human, Printed limits 44-243 are in mature numbering: mature apoA-I is precursor 25-267 (243 aa), so residue 243 is the C-terminus and the offset is +24. N-terminal His6 tag omitted. Each nanodisc contains t); assay: NMR titration; VSTx1 sample (20 μM by the legend of Fig. 2, 10 mM Tris-Ac, pH 7.0, no added salt) titrated with a lipid-free MSP solution (0.7 mM); 1D 1H-NMR signal intensity taken as free peptide; 40-45 °C; fits to partition equilibrium (eq. 1) and Langmuir isotherm (eq. 2); MSP concentration and n counted per two MSP molecules (MSP×2); details: both partners purified
[2] = target: T1, Membrane scaffold protein (MSP): …; assay: as above; details: both partners purified; remark: listed apart in the source

T1 sequence (chain, as listed by the source): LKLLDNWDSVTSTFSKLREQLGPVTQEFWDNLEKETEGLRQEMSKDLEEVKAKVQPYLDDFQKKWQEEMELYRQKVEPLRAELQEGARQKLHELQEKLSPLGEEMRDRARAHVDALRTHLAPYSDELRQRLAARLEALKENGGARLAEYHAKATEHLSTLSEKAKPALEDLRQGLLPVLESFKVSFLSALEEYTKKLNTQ

B1: VSTx1, voltage sensor toxin from Grammostola spatulata spider venom (recombinant analogue with additional N-terminal Gly-Ser) (peptide)
chain: GSECGKFMWKCKNSNDCCKDLVCSSRWKWCVLASPF
notes: additional N-terminal Gly-Ser residues left by the hydrolysis with thrombin; VSTx1 toxin from Grammostola spatulata spider venom, 34 AA, 4010 Da; three disulfide bonds (cysteine knot); The gene was built from synthetic oligonucleotides; also called VSTx1 toxin; recombinant VSTx1 analogue; not shown: thioredoxin (TRX), N-terminal, cleaved
stoichiometry N [1]: 1.6 | Ka [2]: 50000 ± 0.02 M⁻¹ | stoichiometry N [2]: 3.2 ± 0.9
